From the DeepSol protein solubility set

Assay: soluble on expression in E. coli; label from the status in PepcDB or PDB records

Sequence | soluble on expression in E. coli
MTVNDKKRLAIIGGGPGGLAAARVFSQSLPNFEIEIFVKDYDIGGVWHYPEQKSDGRVMYDHLETNISKKLMQFSGFPFEENVPLYPSRRNIWEYLKAYYKTFIANKDAISIHFSTEVTYLKKKNSQWEITSKDELRTTKSDFDFVIVASGHYSVPKLPTNIAGLDLWFDNKGAFHSKDFKNCEFAREKVVIVVGNGSSGQDIANQLTTVAKKVYNSIKEPASNQLKAKLIETVQTIDSADWKNRSVTLSDGRVLQNIDYIIFATGYYYSFPFIEPSVRLEVLGEGVTGDKHSSVNLHNLWEHMIYVKDPTLSFILTPQLVIPFPLSELQAAIMVEVFCKSLPITTTFDSNACGTHNFPKERTWNTMQNYRNY | soluble
VRALLAQNRLVTLCGTGGVGKTRLAIQIASASELRDGLCFVDLAPITESGIVAATAARAVGLPDQPGRSTMDSLRRFIGNRRMLMVLDNCEHLLDACAALVVELLGACPELTILATSREPIGMAGEITWRVPSMSITDEAVELFADRASRVQPGFTIANHNAAAVGEICRRLDGIPLAIEFAAARVRSMSPLEIADGLDDCFRLLAGGVRGAVQRQQTLRASIDWSHALLTETEQILFRRLAPFVGGFDLAAVRAVAAGSDLDPFSVLDQLTLLVDKSLVVADDCQGRTRYRLLETVRRYALEKLGDSGEADVHARHRDYYTALAASLNTPADNDHQRLVARAETEIDNLRAAFAWSRENGHITEALQLASSLQPIWFGRAHLREGLSWFNSILEDQRFHRLAVSTAVRARALADKAMLSTWLATSPVGATDIIAPAQQALAMAREVGDPAALVRALTACGCSSGYNAEAAAPYFAEATDLARAIDDKWTLCQILYWRGVGTCISGDPNALRAAAEECRDLADTIGDRFVSRHCSLWLSLAQMWAGNLTEALELSREITAEAEASNDVPTKVLGLYTQAQVLAYCGASAAHAIAGACIAAATELGGVYQGIGYAAMTYAALAAGDVTAALEASDAARPILRAQPDQVTMHQVLMAQLALAGGDAIAARQFANDAVDATNGWHRMVALTIRARVATARGEPELARDDAHAALACGAELHIYQGMPDAMELLAGLAGEVGSHSEGVRLLGAAAALRQQTRQVRFKIWDAGYQASVTALREAMGDEDFDRAWAEGAALSTDEAIAYAQRGRGERKRPARGWGSLTPTERDVVRLVSEGLSNKDIAKRLFVSPRTVQTHLTHVYAKLGLPSRVQLVDEAARRGSPS | not soluble
KAGQVDTNDLWSSIPVSPDEYITQRLPILVARMREQWSNNDHVKRYIDLCRRNIVGPRGIVMQAQSRKSRSGALDTAINDAIETWWQDWGRKGQCEVTGKLSWREIQTLCVETCARDGEFIARKIYGTHAGPHGFCLQLIDPLRLPVRYQMLKTDQTGGFVRQGIEFNRFGKPLAYHFSSIDERDTYYYSINGRGYIRVPAEEVIHIFKPVMVGQRRGLPWAATSLLRLHHLQGFEEAAVQNARAAASKMGFVCYPEGVGPRADEQENVAQTIQMNAGPLAIHELPQGAEFQDWNPQYPSGEFGLFTKAAKQSLAAGMDLSYHALSGDLADVNYSSIRQGTLDERERWKEDQQ | not soluble
AHHHHHHGSITRGRVWKFGDNISTDAITPGRYNLTKDPNELAKIAFIEERPEFSKEVKPGDVVVGGKNFGIGSSRESAALALKAAGVGGVIAKSFGRIFFRNAVNLGLPLLIGNTDPLLDGEIVEVNWRSGEVKKEDGEVLKFKPLDSFLLAIVEEGGIIEYIRRRGDLWIQ | soluble
LKVGFFKRNLKEKIEAGRGVPNGIPAEDSEQLASGQEAGDPGCLKPLHEKDSESGGGKDG | soluble
MGSDKIHHHHHHMTVWRFKKSQKGLVGVDITSATVKLIELESSGAGHRIASYAVRPLHEGAVVERRIRDLDEVANTLTRAVEHARPHSRRAVAAVPASAAITKTLTYPASLTDDEIEARIQLESERHIPFPLNEVAFDFQRLGLNARYPDQQDILLVACRLQDVDRLADVLRRAGLEPAAVDVETFAMERAAGELLLGQAASQPDDECVALVDIGANMNAFHVLIDGRIAYTRDNVLGGRHLTEEIRKRYGLSLEEAGLAKKRGGLPEDYELEVLTPYIDMLIQQVGRSLQLYYTSGKPRDIQRLVLAGGSSVIPGLRERLAAQSGLEVVMANPFSRMRVASRVDVQALASDAPAMLTACGLAMRGRR | not soluble
MAPKDNTWYTGAKLGFSQYHDTGFINNNGPTHENQLGAGAFGGYQVNPYVGFEMGYDFLGRMPYKGSVENGAYKAQGVQLTAKLGYPITDDLDIYTRLGGMVFRADTKSNVYGKNHDTGVSPVFAGGVEYAITPEIATRLEYQFTNNIGDAHTIGTRPDNGMLSLGVSYRFGQGEAA | soluble
MLDVPHGKFGFTKGCIIAVILLSLSRTLNRGQLNLERFEFWQPTSQLLALDVCLRDAFALEHHHHHH | not soluble
MQSSNGEHHQQKQTPYFMNAPCDPALLALAQQTFLGFQPQKNMYQHGFPPMLPHRNLIPSLAAAIPEMDKLMLEEPIEAGSMPYRRATNKNISVSDDSFNNMHRSSSSSQYRRHSAQWETMTDDERESVQRQKRKEEAFKTALCDAFKRSGSCPYGEACRFAHGENELRMPSQPRGKAHPKYKTQLCDKFSNFGQCPYGPRCQFIHKLKKGLPLSEYNRALQEGEISPARDDEITNPDESSSQVEDLSELHHRQHQQQQQYQQRYRRPPFNNFHDMSDSGYSAPRRRLHHQFEHLGSEQQQQQQQQTPAPKIVYPSMQVVNIEMATGDGPKRSDNHHYHHHHHQRRHIPAPPSTGPLSSLIDQADYEASMASGKMFGKPENIRTYGAMIRANEEHVERNQTGVVKKERATVLPKRDLSLIREEDTLLVDGSHLNMTSSAILPAHQIPSTTTTSTSSPVQEQPWYEKIFGKMTMIQEESSMGGEDDDAHEDHYSR | not soluble
MSDPLLQLISTGLGLWIRSRCDQVGDLDLTLQGSSLGLMRGRLQGAVLSARDVRFEGLPLHHAEISSGPIQLDLTWLRPGRMLALKDPFQVKGTVSMPGQPLGDALLSERWRELGDWIAEQLMGLKPLGQLRIENDELELVASVAAQRDPIRKRFRLRAEAGTVVLSASDSPETRAVLPMDPAITITDATLGAGLLTLQGHAIVTPE | not soluble
MSLVLRKRSMKLGDLKVHTLAIPLREPIQFSWEPFPHPVYVFSIVEVEAGGFKGYSAIEFGAAYKHFLETTVKLTIQGLDIEIEDVDARLLEVGSWAIQRLGALEVAIWDLIAKREGLPLYRLLGGGRRKVKVYASTGRLLSAEETVKMVEKYAELGIDVVKLRFRRERINEDLEVLKAVAREFSDVKISVDANQAWSYTPPYWSRKKAMKVAKELENFEVLWLEEPLWKDDVEGYRWLRENTSIEISGGELEHGIQRFRMLIEGGAFDIVQADAVYSNGIQECRKVAALAEAFNLKFMPHAWDPGLGWLANLHLAASLPEKLCPYIETPLDPLWWNEVMFGVLNGEVELEKGYAKLPEQPGLGFEPDEEKMKKFRIAEGHHHHHH | not soluble
MTYETVERSKKSQVNLNNKEPFSVLLLGIDTGDDGRVEQGRSDTTIVATVNPRDKQTTLVSLARDTYVDIPGQGKQDKLNHAYAFGGASLAMDTVENYLNIPINHYVSINMAGLKELVNAVGGIEVNNNLTFSQDGYDFTIGKISLDGEQALSYSRMRYEDPNGDYGRQERQRKVIEGIVQKVLSLNSVSNYQEILTAVSDNMKTDLSFDDMKKIALDYRSAFGKVKQDQLQGTGFMQDGVSYQRVDEQELTRVQQELKNQLNTKLEHHHHHH | soluble
MIKCIYIVCALNDNTIYSTLHYMEYSIQRGEIYMKIIKRSGSEDIFDAAKIVAAIRKANDSVLDYEKLTADQIEEIASNVETACENMKRSPSVEEIQDMVENQLMNKRAFTVARNYITYRYKRAIVRKSNST | not soluble
MGSDKIHHHHHHGGEDYVQAEQAPMLKIPEGLKTPPYNKEYDVPALGPKANPALVGKNLDIRPPLQVLPMAEGTHVEEGSDNIKIVVESIDNNVDLKQEIFTNLDDFFAKQAIPIRSRDFDKGSIETDWIESREVLESSLWGSDKEYLLRQRYRFDVETRPHGRTANIVIHLVEHEEFYDGKEQKVMLSGEDKQRYTIDMLNSAIAYMSVKREQTIQANRLKQTLGINVDLITPEEGAAYWSAKAAYKQVWDRLRIVLPEMGFEISDMDSAKGLYFIKFTDNSGFWSSLWNNNQLSLKEGSYRLLLEDGDTPDETKIWLRDAEDQPLSNDVVSKVYESLSSLMKEERKLR | not soluble
